Usually Kd stands for the concentration at which binding is half-saturated.

Experiment [1] addresses NT-495-labeled Arl1^GTP, P40616. Put plainly: fluorescence anisotropy. The settings on record: chain shown with the change;; parent: 26 ± 5. A general note: Polarisation of emitted light reports the rotation of a fluorescent probe.
The target of experiment [2] is NT-495-labeled Arl1^GTP (human) (UniProt P40616). Nature of the experiment: fluorescence polarisation; fluorescence anisotropy, NT-495-labeled Arl1 titrated with DCB variants, 20°C, 50 mM Tris-HCl pH 8.0, 110 mM KCl, 1 mM DTT, 5 mM MgCl2, 0.001% Triton X-100, 0.1% Tween-20, 5 μM GTP; single-site (1:1) model.

Numbering of substitutions follows the chain as printed. In names and notes the source's numbering stands. Some results are limits rather than exact numbers.

NT-495-labeled Arl1^GTP, P40616, sequence (P40616 15-181 Q71L): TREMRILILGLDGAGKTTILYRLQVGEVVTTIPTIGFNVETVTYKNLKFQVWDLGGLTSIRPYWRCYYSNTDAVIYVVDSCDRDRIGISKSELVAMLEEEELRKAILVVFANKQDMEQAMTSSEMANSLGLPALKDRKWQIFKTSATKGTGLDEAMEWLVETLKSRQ

B1: His6-DCB^BIG1 (human BIG1 residues 1–228), Q9Y6D6 L156D (protein)
chain: MYEGKKTKNMFLTRALEKILADKEVKKAHHSQLRKACEVALEEIKAETEKQSPPHGEAKAGSSTLPPVKSKTNFIEADKYFLPFELACQSKCPRIVSTSLDCLQKLIAYGHLTGNAPDSTTPGKKLIDRIIETICGCFQGPQTDEGVQLQIIKALDTAVTSQHIEIHEGTVLQAVRTCYNIYLASKNLINQTTAKATLTQMLNVIFARMENQALQEAKQMEKERHRQH
In the case of B1, the Kd in experiment [1] stood at 86 µM.

B2: His6-DCB^BIG1 Lys105Asp (domain or fragment)
chain: B1 chain with K105D, D156L
The molecule B2 gave a fold increase of Kd against wild type in experiment [2] of over 5 fold.

B3: His6-DCB^BIG1 (human BIG1 residues 1–228), Q9Y6D6 Q200E (protein)
chain: B1 chain with D156L, Q200E
For the molecule B3, the Kd in experiment [1] was 140 µM.

B4: His6-DCB^BIG1 (human BIG1 residues 1–228) (domain or fragment)
chain: B1 chain with D156L
For B4, in experiment [2], the Kd was 26 µM.

B5: His6-DCB^BIG1 Gln200Glu (domain or fragment)
chain: B1 chain with D156L, Q200E
B5 registered a fold increase of Kd against wild type in experiment [2] of over 5 fold.

B6: His6-DCB^BIG1 (human BIG1 residues 1–228), Q9Y6D6 K105D (protein)
chain: B1 chain with K105D, D156L
Turning to B6, in experiment [1], the Kd is 110 µM.

(Values after PMC4956616.)
